Results on three molecules are retold here after US20240181022A1, “AMURINS LYSINS, AND LYSIN-ANTIMICROBIAL PEPTIDE (AMP) CONSTRUCTS ACTIVE AGAINST GRAM-NEGATIVE BACTERIA” (priority 2021, published 2024).

Values after ≈ are worked out from the molar mass of the structure shown. Read-outs that look alike come from different tables or passages of the source. Where no end group is shown, it is not given here. [ ]: non-standard residue; d: D form.

One assay deals with B. cenocepacia. The assay is described as follows: Checkerboard synergy assay with meropenem against B. cenocepacia. Type of assay: cell-based, Burkholderia cenocepacia. The conditions noted are these: for MIC (dual agent): GN370 + meropenem; for FICmin / FICmin interpretation: GN370 with meropenem. From the text:
In some embodiments, the Chp peptides disclosed herein or active fragments thereof reduce the minimum inhibitory concentration (MIC) of an antibiotic in the presence and/or absence of human serum, pulmonary surfactant, and/or sputum, including human sputum and human sputum from a cystic fibrosis patient. Any known method to assess MIC may be used. In some embodiments, a checkerboard assay is used to determine the effect of a Chp peptide or active fragment thereof on antibiotic concentration. The checkerboard assay is based on a modification of the CLSI method for MIC determination by broth microdilution (See Clinical and Laboratory Standards Institute (CLSI), CLSI. 2015. Methods for Dilution Antimicrobial Susceptibility Tests for Bacteria That Grow Aerobically; Approved Standard-10th Edition. Clinical and Laboratory Standards Institute, Wayne, PA, which is herein incorporated by reference in its entirety and Ceri et al. 1999. J. Clin. Microbiol. 37: 1771-1776, which is also herein incorporated by reference in its entirety).
Checkerboards are constructed by first preparing columns of e.g., a 96-well polypropylene microtiter plate, wherein each well has the same amount of antibiotic diluted 2-fold along the horizontal axis. […] The Chp peptide or active fragment thereof and antibiotic dilutions are then combined, so that each column has a constant amount of antibiotic and doubling dilutions of Chp peptide, while each row has a constant amount of Chp peptide and doubling dilutions of antibiotic. Each well thus has a unique combination of Chp peptide and antibiotic. Bacteria are added to the drug combinations at concentrations of 1×10^5 GFU/ml in CAA, for example, with or without human serum or pulmonary surfactant. […] Summation fractional inhibitory concentrations (ΣFICs) are calculated for each drug and the minimum ΣFIC value (ΣFICmin) is used to determine the effect of the Chp peptide/antibiotic combination.
The synergy of GN370 with meropenem was evaluated against 3 different strains of P. aeruginosa and three different strains of B. cenocepacia.

Assay [1] concerns A. xylosoxidans. As to the kind of experiment: Time-kill assay in cystic fibrosis patient sputum, A. xylosoxidans. Type of assay: cell-based, Achromobacter xylosoxidans. The conditions noted are these: for effect of sputum on antibacterial activity: 10% CF sputum vs no sputum. An excerpt:
Sputum from 5 cystic fibrosis patients was pooled. The resulting mixture was not filtered, as it was very dense and not amenable to sterilization by filtration. Sputum is known to be a complex mixture of DNA, carbohydrates, and lipids ([…], 2016). As used herein, the term “sputum” refers to the mucus present in the respiratory tract of an animal, such as a human. Sputum may increase in thickness due to the irritation or infection, including bacterial infection, and in some instances, may be expelled by the animal while coughing. In certain instances, cystic fibrosis may be characterized by the presence of a thick, sticky mucus or sputum present in the lungs of cystic fibrosis patients. The activity of GN370, AM1, AM2, AM3, and meropenem was determined in the sputum using a time-kill assay format as disclosed in Zhang et al., Antimicrobial peptide therapeutics for cystic fibrosis, Antimicrobial Agents Chemother. 2005; 49(7):2921-2927. […] Untreated controls were included in addition to pretreatment plating (t=0) for a baseline CFU determination. Activity was also determined in the absence of sputum for comparison to activity observed in the presence of sputum.

Assay [2] has as its system A. xylosoxidans. The assay is classed as cell-based, Achromobacter xylosoxidans. Particulars: for MIC: A. xylosoxidans test organism of the sputum time-kill assay. How it is done: (§1) MIC values were determined using a modification of the standard broth microdilution reference method defined by the Clinical and Laboratory Standards Institute (CLSI), CLSL. 2015. Methods for Dilution Antimicrobial Susceptibility Tests for Bacteria That Grow Aerobically; Approved Standard-10th Edition. Clinical and Laboratory Standards Institute, Wayne, PA. The modification was based on the replacement of Mueller Hinton Broth with either CAA media (with and without NaCl) or CAA supplemented with 2.5% human serum. MIC is the minimum concentration of peptide sufficient to suppress at least 80% of the bacterial growth compared to control.
(§2) The MICs for were determined as described below using the broth microdilution method for meropenem, GN370, AM1, AM2, and AM3. The results are shown below in Tables 8-12.
The activity of GN370 and AM1 was evaluated against various bacterial isolates, including mucoid and α-hemolytic isolates of P. aeruginosa, MDR isolates, and carbapenem-resistant isolates.

Another assay relates to P. aeruginosa. Particulars: for antibiofilm activity (MBEC) against P. aeruginosa: 2-hour treatments.
Another assay concerns M. avium. The assay is described as follows: MIC against M. avium. The assay is classed as cell-based, Mycobacterium avium. Particulars: M. avium (ATCC 700898); CAAT media.
Another assay relates to M. kansasii. As to the kind of experiment: MIC against M. kansasii. Type of assay: cell-based, Mycobacterium kansasii. The conditions noted are these: M. kansasi (ATCC 12478); CAAT media.
The test system of a further assay is Achromobacter spp. The assay is described as follows: MIC by broth microdilution against Achromobacter spp. The assay is classed as cell-based. Particulars: Tables 8-12. The method, then:
as §1, §2

For a further assay, the system named is B. gladioli. Type of assay: cell-based, Burkholderia gladioli. Particulars: B. gladioli (15); 2-hour treatment. The method, then:
The MBEC (after 2-hour treatments) was determined as described in Jones and Wozniak, PsI Produced by Mucoid Pseudomonas aeruginosa Contributes to the Establishment of Biofilms and Immune Evasion, Am. Soc. Microbiol. 2017, 8(3):e00864-17. Meropenem and tobramycin were included as controls and were both poorly active, with MBEC90 values of >256 μg/mL (data not shown).

Where [3] appears, read: P. aeruginosa (28), 2-hour treatment.
[4] abbreviates: Achromobacter xylosoxidans, N 11 (Table 26).

Broadly, the MIC50 is the lowest concentration that inhibits either 50% of growth or 50% of the strains tested, depending on the study. The low end stands for higher susceptibility, the high end for lower susceptibility. As a reminder, the MIC90 is the lowest concentration that inhibits either 90% of growth or 90% of the strains tested, depending on the study. Higher therefore signals weaker potency. `C[C@@H](O)[C@H]1C(=O)N2C(C(=O)O)=C(S[C@@H]3CN[C@H](C(=O)N(C)C)C3)[C@H](C)[C@H]12` [meropenem, reference compound]: the results for the MIC (alone) in the assay with B. cenocepacia (B. cenocepacia (CFS 2135)), in the assay with B. cenocepacia (B. cenocepacia (CFS 2138)) and in the assay with B. cenocepacia (B. cenocepacia (CFS 2142)) were 32 µg/mL, 64 µg/mL and 64 µg/mL, respectively. In addition, the values for the MIC (dual agent) with B. cenocepacia (B. cenocepacia (CFS 2135)), in the assay with B. cenocepacia (B. cenocepacia (CFS 2138)) and in the assay with B. cenocepacia (B. cenocepacia (CFS 2142)) were 32 µg/mL, 64 µg/mL and 32 µg/mL, respectively. Also, the “activity in the presence and absence of sputum” value in the assay with A. xylosoxidans [1] was “poorly active”. In addition, the “Log10 CFU/mL of sputum” value is recorded as 4.9 Log10 CFU/mL of sputum in the assay with A. xylosoxidans [1] (absence of sputum, 1 hr); 5.3 Log10 CFU/mL of sputum with A. xylosoxidans [1] (absence of sputum, 3 hr); 7.3 Log10 CFU/mL of sputum with A. xylosoxidans [1] (absence of sputum, 24 hr); 4.78 Log10 CFU/mL of sputum in the assay with A. xylosoxidans [1] (presence of 10% sputum, 1 hr); 4.3 Log10 CFU/mL of sputum in the assay with A. xylosoxidans [1] (presence of 10% sputum, 3 hr); 7.56 Log10 CFU/mL of sputum in the assay with A. xylosoxidans [1] (presence of 10% sputum, 24 hr). For the same molecule, the MIC50 against A. xylosoxidans [2] (A. xylosoxidans isolates) came out at 4 µg/mL (≈ 10.4 µM). This molecule showed an MIC90 in the assay on A. xylosoxidans [2] (A. xylosoxidans isolates) greater than 32 µg/mL. In the assay with A. xylosoxidans [2], the MIC result is recorded as “Meropenem (MIC = 0.25)”.

Consider “M[dR]L[dK]MA[dR][dR][dR]Y[dR]LP[dR][dR][dR]S[dR][dR]LFS[dR]TAL[dR]MHP[dR]N[dR]L[dR][dR]IM[dR]GGI[dR]F [AM2]”, for which, in the assay with P. aeruginosa, the MBEC50 was determined as 0.25 µg/mL. The same molecule registered an MBEC90 with P. aeruginosa of 1 µg/mL. Further, the “MBEC Range” value with P. aeruginosa lay in the range of 0.016 to 2 µg/mL. Also, in the assay on P. aeruginosa, the “antibiofilm activity (MBEC) against P. aeruginosa” value is on record as “highly active”. Also, the MIC in the assay with M. avium is 1 Tg/mL; against A. xylosoxidans [2], “AM2 (MIC = 1)”; against M. kansasii, 2 µg/mL. Besides, the “effect of sputum on antibacterial activity” value with A. xylosoxidans [1] is “none of GN370, AM1, AM2, and AM3 was inhibited”. Further, the “Log10 CFU/mL of sputum” value in the assay on A. xylosoxidans [1] (absence of sputum, 1 hr) was 3.3 Log10 CFU/mL of sputum; in the assay on A. xylosoxidans [1] (absence of sputum, 3 hr) it was 2.3 Log10 CFU/mL of sputum; in the assay with A. xylosoxidans [1] (absence of sputum, 24 hr), 2.3 Log10 CFU/mL of sputum; with A. xylosoxidans [1] (presence of 10% sputum, 1 hr), 2.3 Log10 CFU/mL of sputum; with A. xylosoxidans [1] (presence of 10% sputum, 3 hr), 2.3 Log10 CFU/mL of sputum; in the assay with A. xylosoxidans [1] (presence of 10% sputum, 24 hr) it was 2.3 Log10 CFU/mL of sputum. Moreover, the “killing by 1 hour, maintained at 24 hours” value in the assay on A. xylosoxidans [1] (time-kill) is given as “complete killing”. This molecule came in with an MIC50 against A. xylosoxidans [2] (A. xylosoxidans isolates) of 2 µg/mL. Also, the MIC90 with A. xylosoxidans [2] (A. xylosoxidans isolates) came out at 64 µg/mL. Also, the “activity (MIC) against Achromobacter spp.” value in the assay with Achromobacter spp. is reported as “variably active”.

B1: GN370: lysin-AMP construct, SEQ ID NO: 149: MIDR, FIRL and NPTH moieties N-terminal to GN202 lysin (protein)
chain: MIDRFIRLNPTHGPRRPRRPGRRAPVRTSQRGIDLIKSFEGLRLSAYQDSVGVWTIGYGTTRGVTRYMTITVEQAERMLSNDIQRFEPELDRLAKVPLNQNQWDALMSFVYNLGAANLASSTLLDLLNKGDYQGAADQFPHWVNAGGKRLDGLVKRRAAERALFLEPLS
modifications: GN370 lysin
For the molecule B1, the “antibiofilm activity (MBEC) against P. aeruginosa” value in the assay with P. aeruginosa is “highly active”. Further, in the assay with P. aeruginosa (MDR and XDR P. aeruginosa (9)), the MBEC50 turned out to be 2 µg/mL, the MBEC90 came out at 4 µg/mL, the “MBEC Range” value was 1 to 4 µg/mL and the “Number of isolates at MBEC 1 μg/mL” value stood at 4. For the same molecule, in the assay with P. aeruginosa (MDR and XDR P. aeruginosa (9)), the “Number of isolates at MBEC 2 μg/mL” value was determined as 4 and the “Number of isolates at MBEC 4 μg/mL” value was 1. Also, in the assay with P. aeruginosa (setting [3]), the MBEC50 is 1 µg/mL, the MBEC90 was determined as 2 µg/mL and the “MBEC Range” value was 0.064-4 ^ μg/mL. In the assay with B. cenocepacia (B. cenocepacia (CFS 2135)), the MIC (alone) turned out to be 128 µg/mL, the MIC (dual agent) turned out to be 64 µg/mL, the FICmin was found to be 1.5 and the FICmin interpretation entry is “(Indifferent)”. Moreover, in the assay with B. cenocepacia (B. cenocepacia (CFS 2138)), the MIC (alone) is 256 µg/mL, the MIC (dual agent) came out at 128 µg/mL, the FICmin worked out at 1.5 and the FICmin interpretation result is “(Indifferent)”. In addition, in the assay with B. cenocepacia (B. cenocepacia (CFS 2142)), the MIC (alone) was 256 µg/mL, the MIC (dual agent) is 128 µg/mL, the FICmin was 1 and the FICmin interpretation entry was “(Additive)”. Also, the synergy with meropenem result in the assay on B. cenocepacia (three strains of B. cenocepacia) is on record as “not against B. cenocepacia”. The molecule further had an MBEC50 in the assay on B. gladioli of 256 µg/mL. The “effect of sputum on antibacterial activity” value in the assay with A. xylosoxidans [1] is “none of GN370, AM1, AM2, and AM3 was inhibited”. Also, the “Log10 CFU/mL of sputum” value in the assay with A. xylosoxidans [1] (absence of sputum, 1 hr) was 3.7 Log10 CFU/mL of sputum. Further, the “Log10 CFU/mL of sputum” value with A. xylosoxidans [1] (absence of sputum, 3 hr) was 3.3 Log10 CFU/mL of sputum. The “Log10 CFU/mL of sputum” value in the assay on A. xylosoxidans [1] (absence of sputum, 24 hr) is on record as 2.3 Log10 CFU/mL of sputum. The “Log10 CFU/mL of sputum” value with A. xylosoxidans [1] (presence of 10% sputum, 1 hr) is 3.6 Log10 CFU/mL of sputum. The “Log10 CFU/mL of sputum” value with A. xylosoxidans [1] (presence of 10% sputum, 3 hr) is recorded as 3.3 Log10 CFU/mL of sputum. The “Log10 CFU/mL of sputum” value in the assay with A. xylosoxidans [1] (presence of 10% sputum, 24 hr) is listed as 2.3 Log10 CFU/mL of sputum. In the assay on A. xylosoxidans [1] (time-kill), the “CFU reduction by 3 hours” value is roughly 2 log10 and the “CFU reduction by 24 hours” value was greater than 3 log10. Also, in the assay on A. xylosoxidans [2] (A. xylosoxidans isolates), the MIC50 is 8 µg/mL and the MIC90 is greater than 32 µg/mL. In addition, the MIC entry in the assay on A. xylosoxidans [2] is given as “GN370 (MIC = 0.25)”. In the assay on A. xylosoxidans [2] (setting [4]), this molecule displayed an MIC50 greater than 64 µg/mL and an MIC90 greater than 64 µg/mL.
